According to patent US9187525B2, “Methods of treating ophthalmic diseases using NPR-B agonists” (Shire Orphan Therapies GmbH, dated 2015):
Numbered stars: 1 amine (or outer) side, 2 acyl side, 3 side chain; on linkers, the order of the positions; unused ones are H or OH. Square brackets hold non-standard residues; d marks the D form. Ends that are not written are not given here. * marks the point of attachment. Dtp = (R)-2,2-dimethylthiazolidine-4-carboxylic acid, CC1(C)SC[C@@H](C(=O)[*:2])N1[*:1]; Ebe = (R)-2-amino-3-(methylsulfanyl)propanoic acid, CSC[C@H](N[*:1])C(=O)[*:2]; Sni = (S)-nipecotic acid, O=C([C@H]1CCCN([*:1])C1)[*:2]; Pro(trans-4-Ph) = O=C(O)[C@@H]1C[C@@H](c2ccccc2)CN1; Phe(3-CF3) = N[C@@H](Cc1cccc(C(F)(F)F)c1)C(=O)O; Azetidine3carboxylic = O=C(C1CN([*:1])C1)[*:2]; Phe(4-Cl) = N[C@@H](Cc1ccc(Cl)cc1)C(=O)O; Pro(cis-4-F) = O=C(O)[C@@H]1C[C@H](F)CN1; Phe(3-Me) = Cc1cccc(C[C@H](N)C(=O)O)c1; Hyp = O=C(O)[C@@H]1C[C@@H](O)CN1; NMeF = CN[C@@H](Cc1ccccc1)C(=O)O; 2Thi = N[C@@H](Cc1cccs1)C(=O)O; 3Thi = N[C@@H](Cc1ccsc1)C(=O)O; NMeL = CN[C@@H](CC(C)C)C(=O)O; Tle = CC(C)(C)[C@H](N)C(=O)O; hLeu = CC(C)CC[C@H](N)C(=O)O; dNle = CCCC[C@@H](N)C(=O)O; hSer = N[C@@H](CCO)C(=O)O; Octanoyl = CCCCCCCC(=O)*; Thz = O=C(O)[C@@H]1CSCN1; dAbu = CC[C@@H](N)C(=O)O; dDap = NC[C@@H](N)C(=O)O; Nva = CCC[C@H](N)C(=O)O; Hexanoyl = CCCCCC(=O)*; asn = not defined here; leu = not defined here; nle = not defined here; Occ = octanoic acid

B1: JAL-0975 (peptide)
peptide: [Occ]AFGL[Pro(trans-4-Ph)]LDRI-NH2
modifications: not fully specified (residue 2); printed as Occ-ala-Phe-Gly-Leu-Eay-Leu-Asp-Arg-Ile-NH2
B2: JAL-0978 (peptide)
peptide: [Occ]AFGL[Pro(cis-4-F)]LDRI-NH2
modifications: not fully specified (residue 2); printed as Occ-ala-Phe-Gly-Leu-Fpr-Leu-Asp-Arg-Ile-NH2
B3: JAL-0979 (peptide)
peptide: [Occ]AFGL[Dtp]LDRI-NH2
modifications: not fully specified (residue 2); printed as Occ-ala-Phe-Gly-Leu-Dtp-Leu-Asp-Arg-Ile-NH2
B4: JAL-0980 (peptide)
peptide: [Occ]AFGL[Thz]LDRI-NH2
modifications: not fully specified (residue 2); printed as Occ-ala-Phe-Gly-Leu-Eaz-Leu-Asp-Arg-Ile-NH2
B5: JAL-0985 (peptide)
peptide: [Occ][Azetidine3carboxylic]FGLPLDRI-NH2
B6: JAL-0989 (peptide)
peptide: [Occ]AFGLPLDR[Tle]-NH2
modifications: not fully specified (residue 2); printed as Occ-ala-Phe-Gly-Leu-Pro-Leu-Asp-Arg-Tbg-
B7: JAL-0992 (peptide)
peptide: [Occ]AFGLPLSRI-NH2
modifications: not fully specified (residue 2); printed as Occ-ala-Phe-Gly-Leu-Pro-Leu-Ser-Arg-Ile-NH2
B8: JAL-0993 (peptide)
peptide: [Occ]AFGLPL[hSer]RI-NH2
modifications: not fully specified (residue 2); printed as Occ-ala-Phe-Gly-Leu-Pro-Leu-Hse-Arg-Ile-NH2
B9: JAL-0995 (peptide)
peptide: [Occ]AFGIPLDRI-NH2
modifications: not fully specified (residue 2); printed as Occ-ala-Phe-Gly-Ile-Pro-Leu-Asp-Arg-Ile-NH2
B10: JAL-0534 (peptide)
peptide: Hexanoyl-[Ebe][dP]FGLKIDRIS[Ebe]-NH2
B11: JAL-0996 (peptide)
peptide: [Occ]AFG[Nva]PLDRI-NH2
modifications: not fully specified (residue 2); printed as Occ-ala-Phe-Gly-Nva-Pro-Leu-Asp-Arg-Ile-NH2
B12: JAL-0998 (peptide)
peptide: [Occ]AFG[hLeu]PLDRI-NH2
modifications: not fully specified (residue 2); printed as Occ-ala-Phe-Gly-Hle-Pro-Leu-Asp-Arg-Ile-NH2
B13: JAL-1000 (peptide)
peptide: [Occ]A[2Thi]GLPLDRI-NH2
modifications: not fully specified (residue 2); printed as Occ-ala-Thi-Gly-Leu-Pro-Leu-Asp-Arg-Ile-NH2
B14: JAL-1002 (peptide)
peptide: [Occ]A[Phe(4-Cl)]GLPLDRI-NH2
modifications: not fully specified (residue 2); printed as Occ-ala-Pcf-Gly-Leu-Pro-Leu-Asp-Arg-Ile-NH2
B15: JAL-1003 (peptide)
peptide: [Occ]A[3Thi]GLPLDRI-NH2
modifications: not fully specified (residue 2); printed as Occ-ala-Thk-Gly-Leu-Pro-Leu-Asp-Arg-Ile-NH2
B16: JAL-1005 (peptide)
peptide: [Occ]A[Phe(3-CF3)]GLPLDRI-NH2
modifications: not fully specified (residue 2); printed as Occ-ala-Mtf-Gly-Leu-Pro-Leu-Asp-Arg-Ile-NH2
B17: JAL-1006 (peptide)
peptide: [Occ]A[Phe(3-Me)]GLPLDRI-NH2
modifications: not fully specified (residue 2); printed as Occ-ala-Mmf-Gly-Leu-Pro-Leu-Asp-Arg-Ile-NH2
B18: JAL-1010 (peptide)
peptide: [Occ]AFSLPLDRI-NH2
modifications: not fully specified (residues 2, 4); printed as Occ-ala-Phe-ser-Leu-Pro-Leu-Asp-Arg-Ile-NH2
B19: JAL-1011 (peptide)
peptide: [Occ]AFTLPLDRI-NH2
modifications: not fully specified (residues 2, 4); printed as Occ-ala-Phe-thr-Leu-Pro-Leu-Asp-Arg-Ile-NH2
B20: JAL-1012 (peptide)
peptide: [Occ]AFVLPLDRI-NH2
modifications: not fully specified (residues 2, 4); printed as Occ-ala-Phe-val-Leu-Pro-Leu-Asp-Arg-Ile-NH2
B21: JAL-0535 (peptide)
peptide: Hexanoyl-S[dA]FGLKLDRISS-NH2
B22: JAL-1013 (peptide)
peptide: [Occ]AF[leu]LPLDRI-NH2
modifications: not fully specified (residue 2); printed as Occ-ala-Phe-leu-Leu-Pro-Leu-Asp-Arg-Ile-NH2; reading uncertain
B23: JAL-1014 (peptide)
peptide: [Occ]AF[nle]LPLDRI-NH2
modifications: not fully specified (residue 2); printed as Occ-ala-Phe-nle-Leu-Pro-Leu-Asp-Arg-Ile-NH2; reading uncertain
B24: JAL-1015 (peptide)
peptide: [Occ][Sni]FGL[Hyp][NMeL]DRI-NH2
B25: JAL-1016 (peptide)
peptide: [Occ]AFGL[Hyp][NMeL]DRI-NH2
modifications: not fully specified (residue 2); printed as Occ-ala-Phe-Gly-Leu-Hyp-Nml-Asp-Arg-Ile-
B26: JAL-1017 (peptide)
peptide: [Occ]AF[asn]LPLDRI-NH2
modifications: not fully specified (residue 2); printed as Occ-ala-Phe-asn-Leu-Pro-Leu-Asp-Arg-Ile-NH2; reading uncertain
B27: JAL-1018 (peptide)
peptide: Octanoyl-[dA]F[dM]LPLDRI-NH2
B28: JAL-1019 (peptide)
peptide: Octanoyl-[dA]F[dAbu]LPLDRI-NH2
B29: JAL-1020 (peptide)
peptide: Octanoyl-[dA]F[dDap]LPLDRI-NH2
B30: JAL-1021 (peptide)
peptide: Octanoyl-[Sni]F[dNle]LPLDRI-NH2
B31: JAL-1022 (peptide)
peptide: Octanoyl-[Sni][NMeF][dNle]LPLDRI-NH2
B32: JAL-0536 (peptide)
peptide: Hexanoyl-A[dA]FGLKLDRISA-NH2
B33: JAL-1024 (peptide)
peptide: Octanoyl-[Sni]F[dNle]L[Hyp]LDRI-NH2
B34: JAL-1025 (peptide)
peptide: Octanoyl-[dA]F[dNle]L[Hyp]LDRI-NH2
B35: JAL-1026 (peptide)
peptide: Octanoyl-[dA]F[dL]L[Hyp]LDRI-NH2

Biological target: T1, natriuretic peptide receptor-B (human)
T1 chain: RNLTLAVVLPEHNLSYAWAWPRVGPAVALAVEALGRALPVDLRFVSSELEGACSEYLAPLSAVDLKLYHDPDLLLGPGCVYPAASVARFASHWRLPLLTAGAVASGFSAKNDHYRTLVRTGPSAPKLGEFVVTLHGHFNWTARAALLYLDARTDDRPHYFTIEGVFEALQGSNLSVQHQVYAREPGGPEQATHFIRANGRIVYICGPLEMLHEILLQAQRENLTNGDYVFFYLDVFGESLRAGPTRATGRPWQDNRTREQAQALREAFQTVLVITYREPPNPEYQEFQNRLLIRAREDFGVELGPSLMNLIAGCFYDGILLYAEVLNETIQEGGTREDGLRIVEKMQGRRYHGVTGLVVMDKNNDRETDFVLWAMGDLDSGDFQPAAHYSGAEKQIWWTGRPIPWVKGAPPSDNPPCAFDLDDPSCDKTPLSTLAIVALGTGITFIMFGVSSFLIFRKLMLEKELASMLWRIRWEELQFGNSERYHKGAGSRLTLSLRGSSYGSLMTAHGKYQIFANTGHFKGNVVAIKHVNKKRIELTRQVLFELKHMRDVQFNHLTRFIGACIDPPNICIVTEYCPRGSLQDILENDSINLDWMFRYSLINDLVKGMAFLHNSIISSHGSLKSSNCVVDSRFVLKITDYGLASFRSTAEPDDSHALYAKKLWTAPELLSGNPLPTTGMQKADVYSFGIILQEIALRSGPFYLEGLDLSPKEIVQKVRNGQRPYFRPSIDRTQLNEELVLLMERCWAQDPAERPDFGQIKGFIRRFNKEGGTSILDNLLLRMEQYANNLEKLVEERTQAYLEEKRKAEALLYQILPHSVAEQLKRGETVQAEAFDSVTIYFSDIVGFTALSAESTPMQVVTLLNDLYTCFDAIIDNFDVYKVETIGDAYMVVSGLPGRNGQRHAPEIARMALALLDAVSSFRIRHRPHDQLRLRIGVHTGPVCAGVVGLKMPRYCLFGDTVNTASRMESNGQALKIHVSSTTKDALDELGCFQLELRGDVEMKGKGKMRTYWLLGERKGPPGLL
Assay: cell-based or functional assay

B1 and B2 cannot be ordered by “EC50 group, cGMP in GTM-3 cells” value: at most 15 µM for the first, at most 15 µM for the second.

B3 and B4 cannot be ordered by “EC50 group, cGMP in GTM-3 cells” value: at most 15 µM for the first, at most 15 µM for the second.

B5 and B6 cannot be ordered by “EC50 group, cGMP in GTM-3 cells” value: at most 15 µM for the first, at most 15 µM for the second.

B7 and B8 cannot be ordered by “EC50 group, cGMP in GTM-3 cells” value: at most 15 µM for the first, at most 15 µM for the second.

B9 and B10 cannot be ordered by “EC50 group, cGMP in GTM-3 cells” value: at most 15 µM for the first, at most 15 µM for the second.

B11 and B12 cannot be ordered by “EC50 group, cGMP in GTM-3 cells” value: at most 15 µM for the first, at most 15 µM for the second.

B13 and B14 cannot be ordered by “EC50 group, cGMP in GTM-3 cells” value: at most 15 µM for the first, at most 15 µM for the second.

B15 and B16 cannot be ordered by “EC50 group, cGMP in GTM-3 cells” value: at most 15 µM for the first, at most 15 µM for the second.

B17 and B18 cannot be ordered by “EC50 group, cGMP in GTM-3 cells” value: at most 15 µM for the first, at most 5 µM for the second.

B19 and B20 cannot be ordered by “EC50 group, cGMP in GTM-3 cells” value: at most 5 µM for the first, at most 15 µM for the second.

B21 and B22 cannot be ordered by “EC50 group, cGMP in GTM-3 cells” value: at most 15 µM for the first, at most 5 µM for the second.

B23 and B24 cannot be ordered by “EC50 group, cGMP in GTM-3 cells” value: at most 5 µM for the first, at most 5 µM for the second.

B25 and B26 cannot be ordered by “EC50 group, cGMP in GTM-3 cells” value: at most 5 µM for the first, at most 5 µM for the second.

B27 and B28 cannot be ordered by “EC50 group, cGMP in GTM-3 cells” value: at most 5 µM for the first, at most 5 µM for the second.

B29 and B30 cannot be ordered by “EC50 group, cGMP in GTM-3 cells” value: at most 5 µM for the first, at most 5 µM for the second.

B31 and B32 cannot be ordered by “EC50 group, cGMP in GTM-3 cells” value: at most 5 µM for the first, at most 5 µM for the second.

B33 and B34 cannot be ordered by “EC50 group, cGMP in GTM-3 cells” value: at most 1 µM for the first, at most 5 µM for the second.

For B35, the “EC50 group, cGMP in GTM-3 cells” value was at most 5 µM.
